The target of the series is prostate-specific antigen (PSA) (UniProt P07288 25-261). In words: photoelectrochemical aptasensor (aptamer immobilized on TTPA-CONs/Ti3C2Tx/GCE); 10 ng/mL PSA; photocurrent falls from 3.6 to 1.8 uA after PSA; BSA-blocked electrode; PSA incubated 120 min at 4 °C on BSA-blocked aptamer electrode; photocurrent in 0.1 M phosphate buffer pH 7.4, room temperature, no bias (Section 2.3 states Tris-HCl pH 7.4 as optimum). Conditions: protein: commercial.
Sequence of prostate-specific antigen (PSA) (P07288 25-261): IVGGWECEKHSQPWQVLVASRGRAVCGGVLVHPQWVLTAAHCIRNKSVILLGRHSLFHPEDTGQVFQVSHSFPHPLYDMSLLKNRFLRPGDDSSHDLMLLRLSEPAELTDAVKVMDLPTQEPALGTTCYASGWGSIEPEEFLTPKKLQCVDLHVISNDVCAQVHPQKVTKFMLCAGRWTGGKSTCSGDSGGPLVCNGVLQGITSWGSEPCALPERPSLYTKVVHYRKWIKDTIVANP

Regarding ATTAAAGCTCGCCATCAAATAGC (ssDNA, 5'-NH2-C6) [PSA aptamer (NH2-C6)], the binding result is “binds”.

Source of the values: PMC9572316, “Ultrathin Covalent Organic Framework Nanosheets/Ti3C2Tx-Based Photoelectrochemical Biosensor for Efficient Detection of Prostate-Specific Antigen”.
